Reference: publication PMC11878559

Target: StbD antitoxin of plasmid pHNSHP45 (p45), untagged (plasmid pHNSHP45 (p45), studied in E. coli)
Test: tricine-SDS-PAGE of the purified StbDE complex

Work on “StbD antitoxin of plasmid pHNSHP45 (p45), untagged (natural protein)” yielded a stoichiometry N of 2.
